Results from the supplement of paper PMC10724198.
± gives the standard deviation of the averaged measurements.

test system: Saccharomyces cerevisiae; assay: protein stability index of tFT-peptide fusion (C-terminal peptide) (PSI (0-1 scale)); higher = more stable (slower turnover); details: genetic background: wild type; temperature: 30 C
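Further: PSI is a weighted mean of sequencing reads over stability bins, variants kept only with over 10 reads, mCherry proximal and sfGFP distal, peptide attached via GGGS linker.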

First: VGVSGAGFSWGG
Second: VGVVGGRWCGRG
The protein stability index of the first is higher: 0.712 ± 0.0095 for the first, 0.648 ± 0.0099 for the second.

Going from VGVVLNEPYSQE to VGVWWWWCFGSW, the protein stability index falls from 0.702 ± 0.011 to 0.595 ± 0.069.

VGWAGHVWFWWG and VGWFELWGVSSG are within error of each other in protein stability index: 0.683 ± 0.064 for the first, 0.76 ± 0.052 for the second.

Going from VGWHFPDGVVDC to VGWQGRWWVWGG, the protein stability index falls from 0.8 ± 0.12 to 0.5679 ± 0.005.

VGWVLGCRGLGW and VHDPLLPIFLIR are within error of each other in protein stability index: 0.694 ± 0.067 for the first, 0.684 ± 0.042 for the second.

VHFGVLSLGKRH and VHRMWINARDCV are within error of each other in protein stability index: 0.769 ± 0.16 for the first, 0.676 ± 0.05 for the second.

VIFCVGRFSGGS and VIFIRCFNFQDG are within error of each other in protein stability index: 0.645 ± 0.085 for the first, 0.614 ± 0.052 for the second.

VILFINRIDDGK and VIQMVIYEKDQR are within error of each other in protein stability index: 0.616 ± 0.057 for the first, 0.681 ± 0.04 for the second.

Compared with VIRQPSSKLWIQ, VISLFSSLCSRL is higher in protein stability index: 0.6559 ± 0.0057 for the first, 0.797 ± 0.05 for the second.

First: VIVHFIWPSVGR
Second: VKASPSDGGIVP
The protein stability index of the first is lower: 0.652 ± 0.03 for the first, 0.725 ± 0.035 for the second.

VKESILVGRYDC and VKKSTPIKKPQT are within error of each other in protein stability index: 0.709 ± 0.016 for the first, 0.651 ± 0.062 for the second.

VKPVLEILKTKT and VKSMVCQGHLGI are within error of each other in protein stability index: 0.663 ± 0.037 for the first, 0.722 ± 0.043 for the second.

VKVKRCVRKVGG and VLANAAGLEGFA are within error of each other in protein stability index: 0.687 ± 0.046 for the first, 0.681 ± 0.041 for the second.

VLCVDQVEVSFV and VLDCRDVSCHVL are within error of each other in protein stability index: 0.678 ± 0.03 for the first, 0.661 ± 0.0081 for the second.

VLDPRGEFFSHP and VLFLESWLRFRT are within error of each other in protein stability index: 0.657 ± 0.044 for the first, 0.623 ± 0.073 for the second.

First: VLGSYFNGIWLF
Second: VLGVDVIQVCPI
The protein stability index of the first is lower: 0.534 ± 0.019 for the first, 0.682 ± 0.018 for the second.

VLGWGSKCLVGS and VLHGFGSLRDRV are within error of each other in protein stability index: 0.7 ± 0.035 for the first, 0.717 ± 0.017 for the second.

VLLAAFLLPGLR and VLLQDLSYLIGQ are within error of each other in protein stability index: 0.634 ± 0.033 for the first, 0.707 ± 0.065 for the second.

Going from VLLSSPSLLFFE to VLLSTLHLRGFG, the protein stability index falls from 0.703 ± 0.039 to 0.537 ± 0.04.

Compared with VLMDVVGLGSSS, VLNRFENRNSKA is higher in protein stability index: 0.683 ± 0.019 for the first, 0.7098 ± 0.0035 for the second.

VLPLRPGRKLSG and VLPVLTWWGELG are within error of each other in protein stability index: 0.664 ± 0.054 for the first, 0.733 ± 0.018 for the second.

Compared with VLRCVLTYGKPS, VLRGYRRVGVPP is lower in protein stability index: 0.673 ± 0.031 for the first, 0.616 ± 0.016 for the second.

Going from VLRSSFYLSFPR to VLRSTQGAINRI, the protein stability index rises from 0.611 ± 0.013 to 0.717 ± 0.02.

VLSFFQCSWVLL and VLSFPYLSRKCI are within error of each other in protein stability index: 0.574 ± 0.057 for the first, 0.546 ± 0.037 for the second.

VLSGAPGLIVYA and VLSLPPLFRTSA are within error of each other in protein stability index: 0.602 ± 0.043 for the first, 0.636 ± 0.0086 for the second.

VLTSRCGLLFVL and VLTSSVLPSFFP are within error of each other in protein stability index: 0.62 ± 0.044 for the first, 0.627 ± 0.018 for the second.

VLVPVDRCGYIG and VLWIVDLFACEG are within error of each other in protein stability index: 0.619 ± 0.11 for the first, 0.585 ± 0.0037 for the second.

VLYPVISVLTTL and VMKAVNKTKRNV are within error of each other in protein stability index: 0.629 ± 0.011 for the first, 0.664 ± 0.041 for the second.

Going from VMVTMGNMDSEA to VMVYLRSPLLDR, the protein stability index rises from 0.635 ± 0.031 to 0.748 ± 0.059.

Going from VNAGAPGVLAWV to VNAVLFWPRQLS, the protein stability index falls from 0.739 ± 0.021 to 0.619 ± 0.013.

VNFGWWVVGSRS and VNHVVRFFFSSH are within error of each other in protein stability index: 0.685 ± 0.062 for the first, 0.676 ± 0.019 for the second.

VPAALAGADCSP and VPAGDPPGAWKA are within error of each other in protein stability index: 0.763 ± 0.085 for the first, 0.746 ± 0.025 for the second.

VPALLPLLPSPP and VPFPHTHPLLTP are within error of each other in protein stability index: 0.712 ± 0.03 for the first, 0.757 ± 0.054 for the second.

First: VPITLRFSFLTP
Second: VPPCESLSALSS
The protein stability index of the first is lower: 0.598 ± 0.073 for the first, 0.707 ± 0.034 for the second.

Going from VPPPLPSPPSHP to VPPPLTSPSWHF, the protein stability index falls from 0.761 ± 0.038 to 0.6825 ± 0.0036.

VPRLARTRPKHA and VPRPLPPSPLLV are within error of each other in protein stability index: 0.641 ± 0.042 for the first, 0.644 ± 0.13 for the second.

VPRPPGPPPGPV and VPRTGSLHARLP are within error of each other in protein stability index: 0.667 ± 0.053 for the first, 0.715 ± 0.03 for the second.

Going from VPVISYVQTSIA to VPVMVVCVPSKE, the protein stability index rises from 0.558 ± 0.033 to 0.715 ± 0.035.

Going from VQDALPLLVPPF to VQGEGVVAISMT, the protein stability index falls from 0.762 ± 0.021 to 0.712 ± 0.021.

Compared with VQGGSSCLWSVR, VQGIKFRNSVEV is lower in protein stability index: 0.72 ± 0.01 for the first, 0.665 ± 0.044 for the second.

VQLCQGWIGSES and VQRKVCTFRRSD are within error of each other in protein stability index: 0.676 ± 0.0089 for the first, 0.665 ± 0.14 for the second.

Compared with VQSSLFGLGVQC, VQTLYSQLPALR is higher in protein stability index: 0.566 ± 0.033 for the first, 0.78 ± 0.069 for the second.

VQWSRFRVGMAE and VRAGLAGGPGRV are within error of each other in protein stability index: 0.848 ± 0.19 for the first, 0.684 ± 0.024 for the second.

First: VRAWIGDVENGV
Second: VRCGCDFRVSRC
The protein stability index of the first is lower: 0.574 ± 0.058 for the first, 0.717 ± 0.062 for the second.

VRCLGAVEDCLS and VRDGGLCYLAQL are within error of each other in protein stability index: 0.657 ± 0.013 for the first, 0.667 ± 0.019 for the second.

VREQRLPLARRV and VRFGWCLGSGDG are within error of each other in protein stability index: 0.706 ± 0.07 for the first, 0.702 ± 0.068 for the second.

Going from VRFLWWGLFWGW to VRFPVEPYEAMF, the protein stability index rises from 0.499 ± 0.016 to 0.71 ± 0.0097.

Compared with VRFSVKPAFVRV, VRGDRRHRGVWG is higher in protein stability index: 0.577 ± 0.032 for the first, 0.709 ± 0.066 for the second.

VRGGGSREERGC and VRGRREGVADER are within error of each other in protein stability index: 0.639 ± 0.061 for the first, 0.712 ± 0.084 for the second.

VRGSLFGICSAL and VRPPRLSSCLLS are within error of each other in protein stability index: 0.705 ± 0.06 for the first, 0.656 ± 0.024 for the second.

VRPRSSSQRPTP and VRQCSSGFRGAF are within error of each other in protein stability index: 0.689 ± 0.011 for the first, 0.674 ± 0.07 for the second.

VRRPSPSGGWLR and VRRWCQFLGCCG are within error of each other in protein stability index: 0.73 ± 0.051 for the first, 0.682 ± 0.0081 for the second.

VRSSELFNGVWC and VRVCRSVGAGMT are within error of each other in protein stability index: 0.736 ± 0.093 for the first, 0.649 ± 0.034 for the second.

First: VRVCWGCCGVVF
Second: VRWIEYDVKGWA
The protein stability index of the first is lower: 0.51 ± 0.024 for the first, 0.71 ± 0.011 for the second.

First: VSAPRPPPAPSP
Second: VSCGRVGVARLG
The protein stability index of the first is higher: 0.786 ± 0.1 for the first, 0.641 ± 0.016 for the second.

First: VSCLFFFVSIPF
Second: VSEVDVRGKGIR
The protein stability index of the first is lower: 0.5176 ± 0.0035 for the first, 0.783 ± 0.068 for the second.

VSFRRFKFKVKM and VSGLDSLHPSSN are within error of each other in protein stability index: 0.661 ± 0.061 for the first, 0.717 ± 0.034 for the second.

VSGNLITLRCFT and VSKLTRHLWANQ are within error of each other in protein stability index: 0.59604 ± 0.00021 for the first, 0.61 ± 0.094 for the second.

First: VSLGRRGDRGLC
Second: VSMPIVPWPLLQ
The protein stability index of the first is higher: 0.719 ± 0.031 for the first, 0.54 ± 0.016 for the second.

Going from VSNTSAWLLWIS to VSPLRGSRAPFP, the protein stability index rises from 0.629 ± 0.032 to 0.744 ± 0.068.

VSRDVMYLGLGG and VSRGGAVRLSTQ are within error of each other in protein stability index: 0.721 ± 0.18 for the first, 0.7027 ± 0.0027 for the second.

Compared with VSRGGWLKWDEG, VSRITSRFEKKM is lower in protein stability index: 0.66 ± 0.028 for the first, 0.592 ± 0.0086 for the second.

VSRRSGVGICHL and VSRVWAHFGFCG are within error of each other in protein stability index: 0.609 ± 0.13 for the first, 0.707 ± 0.02 for the second.

First: VSSCSGVLLCVP
Second: VSSPRLSPRLLY
The protein stability index of the first is lower: 0.544 ± 0.016 for the first, 0.775 ± 0.084 for the second.

VSSSLPVHLSLS and VSSVGILPFRFN are within error of each other in protein stability index: 0.717 ± 0.037 for the first, 0.72 ± 0.077 for the second.

VSVIRIVPPEFI and VSVLVAFDTLPG are within error of each other in protein stability index: 0.672 ± 0.03 for the first, 0.711 ± 0.034 for the second.

Compared with VSVVGDVWGYGG, VSYFARCLGSLA is lower in protein stability index: 0.753 ± 0.068 for the first, 0.629 ± 0.0011 for the second.

VTCGVGQHAAIA and VTFRTFFVPTFK are within error of each other in protein stability index: 0.731 ± 0.053 for the first, 0.662 ± 0.097 for the second.

VTNGGGMGWYRR and VTPLPSLPHHRA are within error of each other in protein stability index: 0.652 ± 0.078 for the first, 0.604 ± 0.041 for the second.

VTPVQFMFRLHF and VTSSIQNRCTSC are within error of each other in protein stability index: 0.646 ± 0.054 for the first, 0.706 ± 0.076 for the second.

First: VVALTSVRSRDV
Second: VVALVLVGRHGG
The protein stability index of the first is higher: 0.6759 ± 0.0013 for the first, 0.597 ± 0.041 for the second.

VVARLERAGLGG and VVCGARGDGRCE are within error of each other in protein stability index: 0.766 ± 0.094 for the first, 0.6834 ± 0.0068 for the second.

Going from VVCSTRRPSLGS to VVCVGAEVGEGG, the protein stability index rises from 0.681 ± 0.03 to 0.7197 ± 0.0067.

Compared with VVEKKKKKKNNK, VVGGAWTEAGGG is lower in protein stability index: 0.73 ± 0.041 for the first, 0.632 ± 0.035 for the second.

VVHGIGLIYTGG and VVHVGVWGLGRG are within error of each other in protein stability index: 0.68 ± 0.041 for the first, 0.64819 ± 0.00032 for the second.

VVIFYSSESRRR and VVISRTPAALES are within error of each other in protein stability index: 0.724 ± 0.03 for the first, 0.697 ± 0.013 for the second.

VVLCAALHRTYG and VVLGGGVGRGCW are within error of each other in protein stability index: 0.638 ± 0.012 for the first, 0.691 ± 0.13 for the second.

VVPYRCQRLGDG and VVRARLYVWWLG are within error of each other in protein stability index: 0.686 ± 0.061 for the first, 0.664 ± 0.13 for the second.

VVRGPSGAGRAG and VVRWRMGLFGGR are within error of each other in protein stability index: 0.665 ± 0.052 for the first, 0.654 ± 0.013 for the second.

VVSAIISGLSIK and VVSDGRSYGLLK are within error of each other in protein stability index: 0.733 ± 0.0088 for the first, 0.73703 ± 0.00014 for the second.
